Data taken from patent US20250011456A1, “ANTIBODIES AGAINST CD14 AND USES THEREOF” (Villanelle Life Science Inc, priority 2023, published 2025).
Values joined by “and” are separate entries in the source; they are usually repeats but may differ in a detail not shown here. Equal entries are not always repeated.

What was measured:
[1] = Mouse weight under anti-CD14-IgG1 dosages of Example 7 (PDX mice); format: in vivo
Experimental: To evaluate concentrations for the anti-CD14-IgG1 antibody, PDX mice were treated with five different concentrations of the IgG1 antibody over a period of 28 days. For these experiments, drug administration on the PDX mice was performed intravenously on alternating 4 days and 3 days.
The five different concentrations of the anti-CD14-IgG1 antibody tested include 5 mg/kg, 10 mg/kg, 15 mg/kg, 25 mg/kg, and 40 mg/kg. A control regimen was utilized as a comparative example. […] The non-specific IgG1 has no binding affinity to antigen. […] Tumor weight and tumor volume were calculated as described above.

[2] = molecular target: T1, recombinant human CD14 (B294801, histidine tagged) (Homo sapiens, UniProt P08571); assay: Biacore 8K kinetic and affinity test of humanized antibodies (Example 8); format: binding; conditions: Biacore 8K, analyte B294801 0.78125-25 nM, capture 1 μg/mL
T1 construct: His; purchased Shanghai BaiYing Biotechnology Co., Ltd B294801 (Batch number 20200518A22)
T1 sequence (P08571 20-345): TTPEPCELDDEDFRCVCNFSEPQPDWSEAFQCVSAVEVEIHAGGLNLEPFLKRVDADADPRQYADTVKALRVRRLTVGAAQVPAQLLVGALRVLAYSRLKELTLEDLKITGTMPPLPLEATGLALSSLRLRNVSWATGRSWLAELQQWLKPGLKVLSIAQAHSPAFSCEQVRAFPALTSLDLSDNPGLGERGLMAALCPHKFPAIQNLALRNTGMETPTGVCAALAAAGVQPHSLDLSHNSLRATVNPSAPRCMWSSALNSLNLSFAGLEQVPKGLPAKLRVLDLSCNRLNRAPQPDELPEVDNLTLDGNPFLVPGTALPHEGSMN
Experimental: Experimental reagents and consumables included Protein A chip (Cytiva, 29127556). Main instruments and equipment included Biacore 8K (Cytiva), shaker (Taicang Huamei), ELISA system (Molecular Devices), centrifuge (Baiyang), ultrapure water system (Millipore), and thermostatic incubator (BLUE PARD).
The antigen used for the binding affinity measurements is B294801. This antigen is a recombinant human CD14 antigen that is histidine tagged and has a molecular weight of 36 kDa. B294801 was purchased from Shanghai BaiYing Biotechnology Co., Ltd (name: Recombinant Human CD14/His Protein; Batch number 20200518A22). D6DD3D001 is a mouse antibody, and D6DD3D002-D6DD3D0016 are humanized antibodies. The antibodies are recombinant, human (hFc Tag). Selected parameters of the experimental samples are shown in Table 8-1, with MW referring to molecular weight in kiloDaltons (kDa).
The Biacore 8K platform was used to test the kinetic and affinity properties of the antibody. The operation was carried out according to the system instructions and indications.
The equilibrium dissociation constant (KD) reflects the affinity of the antibody to the target, with a smaller value indicating a stronger affinity. KD (in units of molarity) is determined by the ratio of the dissociation rate constant (koff) and the association rate constant (kon), that is, KD=Koff/kon.
15 humanized antibodies (numbered D6DD3D002-D6DD3D0016) and 1 mouse antibody (number D6DD3D001) were tested. For the experiments, the analyte solution comprises the B294801 antigen with an analyte concentration of 0.78125 nM, 1.5625 nM, 3.125 nM, 6.25 nM, 12.5 nM, and 25 nM. The capture concentration was 1 μg/mL. In Table 8-3, the change factor is the ratio of the equilibrium dissociation constant KD of the humanized to mouse antibody, and reflects the change in affinity after humanization.

[3] = system: CD14 positive recurrent bladder cancer patient-derived xenograft (PDX); assay: Anti-CD14 IgG1/IgG4 with or without cisplatin, tumor treatment in PDX mice (tumor length, width, volume, tumor weight; Example 6); format: in vivo; conditions: for Tumor Length / Tumor Width: IgG1 5 mg/kg i.v. (Ex. 1), PDX mice 1-6
Description: After removing the primary tumor tissue from the patient, the tissue was temporarily placed in a complete culture medium containing RPMI1640 (Gibco Roswell Park Memorial Institute 1640 Media)+PS (penicillin and streptomycin)+10% FBS (Fetal bovine serum). The tissue was then transported to a sterile operating room within an SPF-grade (Specific Pathogen Free) animal facility. The tumor tissue was cut to an appropriate size (5 millimeters (mm) in diameter). Severely immunodeficient NSG (NOD scid gamma mouse) mice were anesthetized using an isoflurane respirator. The tumor was transplanted subcutaneously into the right rib area through surgery. When the tumor volume reached 1 cm^3, it was passaged following the same procedure, and after expanding for three generations, the tumor became stable for use in formal experiments. During the experiment, passaging and expansion were performed as needed. When the tumor volume reached 100 mm^3, the mice were divided into groups according to the experimental requirements and treated with drugs.
The IgG4 tested is the original version of Atibuclimab.
Drug administration on the PDX mice was performed intravenously.

B1: D6DD3D001: mouse-derived anti-CD14 IgG1 antibody; VH SEQ ID NO: 1, VL SEQ ID NO: 3, heavy chain SEQ ID NO: 2, light chain SEQ ID NO: 4 (antibody)
heavy: DVQLQQSGPGLVKPSQSLSLTCTVTGYSITSDSAWNWIRQFPGNRLEWMGYISYSGSTSYNPSLKSRISITRDTSKNQFFLQLNSVTTEDTATYYCVRGLRFAYWGQGTLVTVSSPSVFLFPPKPKDTLMISRTPEVTCVVVDVSHEDPEVKFNWYVDGVEVHNAKTKPREEQYNSTYRVVSVLTVLHQDWLNGKEYKCKVSNKALPAPIEKTISKAKGQPREPQVYTLPPSREEMTKNQVSLTCLVKGFYPSDIAVEWESNGQPENNYKTTPPVLDSDGSFFLYSKLTVDKSRWQQGNVFSCSVMHEALHNHYTQKSLSLSPGK
light: DIVLTQSPASLAVSLGQRATISCRASESVDSYVNSFLHWYQQKPGQPPKLLIYRASNLQSGIPARFSGSGSRTDFTLTINPVEADDVATYYCQQSNEDPYTFGGGTKLEIKRTVAAPSVFIFPPSDEQLKSGTASVVCLLNNFYPREAKVQWKVDNALQSGNSQESVTEQDSKDSTYSLSSTLTLSKADYEKHKVYACEVTHQGLSSPVTKSFNRGEC
With B1 the “Mouse Weight” value ([1]; Day 28, IgG1 (15 mg/kg), per mouse 1-5, 15 mg/kg) was 22.57 g and 21.49 g and 23.11 g and 21.72 g and 23.44 g, the “Mouse Weight” value ([1]; Day 28, IgG1 (25 mg/kg), per mouse 1-5, 25 mg/kg) was 22.62 g and 23.62 g and 22.69 g and 21.64 g and 23.4 g and the “Mouse Weight” value ([1]; IgG1 40 mg/kg group, Day 0, individual mice 1-5, 40 mg/kg) was 20.64 g and 20.79 g and 20.06 g and 20.43 g and 19.66 g. For the same molecule, the “Mouse Weight” value ([1]; IgG1 40 mg/kg group, Day 4, individual mice 1-5, 40 mg/kg) was 20.37 g and 20.71 g and 19.79 g and 20.56 g and 20.73 g, the “Mouse Weight” value ([1]; IgG1 40 mg/kg group, Day 7, individual mice 1-5, 40 mg/kg) was 20.29 g and 20.01 g and 20.53 g and 21.04 g and 20.66 g and the “Mouse Weight” value ([1]; IgG1 40 mg/kg group, Day 11, individual mice 1-5, 40 mg/kg) was 20.49 g and 21.74 g and 20.21 g and 21.3 g and 20.92 g. For the same molecule, the “Mouse Weight” value ([1]; IgG1 40 mg/kg group, Day 14, individual mice 1-5, 40 mg/kg) was 21.19 g and 20.75 g and 20.83 g and 20.91 g and 20.61 g, the “Mouse Weight” value ([1]; IgG1 40 mg/kg group, Day 18, individual mice 1-5, 40 mg/kg) was 21.32 g and 21.28 g and 21.36 g and 20.36 g and 21.14 g and the “Mouse Weight” value ([1]; IgG1 40 mg/kg group, Day 21, individual mice 1-5, 40 mg/kg) was 21.75 g and 20.47 g and 21.5 g and 21.64 g and 21.77 g. The “Mouse Weight” value ([1]; IgG1 40 mg/kg group, Day 25, individual mice 1-5, 40 mg/kg) was 22.33 g and 21.23 g and 22.07 g and 21.9 g and 22.06 g, the “Mouse Weight” value ([1]; IgG1 40 mg/kg group, Day 28, individual mice 1-5, 40 mg/kg) was 23.59 g and 23.7 g and 22.4 g and 21.39 g and 22.91 g and the “koff (1:1 binding)” value [2] was 0.000858 s⁻¹. The “kon (1:1 binding)” value [2] was 1.77e+06 M⁻¹ s⁻¹, the “Tumor Length” value ([3]; Day 0, 5 mg/kg) was 5.49 mm and 6.47 mm and 6.35 mm and 7.09 mm and 6.67 mm and 6.45 mm and the “Tumor Width” value ([3]; Day 0, 5 mg/kg) was 4.68 mm and 5.9 mm and 5.17 mm and 4.77 mm and 5.25 mm and 5.24 mm. The “Tumor Length” value ([3]; Day 4, 5 mg/kg) was 7.07 mm and 6.57 mm and 5.62 mm and 7.08 mm and 6.02 mm and 6.24 mm, the “Tumor Width” value ([3]; Day 4, 5 mg/kg) was 5.98 mm and 5.95 mm and 5.01 mm and 5.53 mm and 5.58 mm and 6.18 mm and the “Tumor Length” value ([3]; Day 7, 5 mg/kg) was 7.09 mm and 6.9 mm and 6.93 mm and 6.25 mm and 6.83 mm and 8.42 mm. For the same molecule, the “Tumor Width” value ([3]; Day 7, 5 mg/kg) was 5.61 mm and 6.26 mm and 6.41 mm and 5.39 mm and 6.72 mm and 6.39 mm, the “Tumor Length” value ([3]; Day 11, 5 mg/kg) was 7.21 mm and 8.38 mm and 8.42 mm and 8.88 mm and 7.93 mm and 6.52 mm and the “Tumor Width” value ([3]; Day 11, 5 mg/kg) was 5.85 mm and 6.91 mm and 7.5 mm and 7.03 mm and 6.5 mm and 5.39 mm. For the same molecule, the “Tumor Length” value ([3]; Day 14, 5 mg/kg) was 8.71 mm and 8.88 mm and 8.53 mm and 8.28 mm and 9.34 mm and 8.3 mm, the “Tumor Width” value ([3]; Day 14, 5 mg/kg) was 7.05 mm and 6.51 mm and 7.95 mm and 7.99 mm and 8.34 mm and 8.05 mm and the “Tumor Length” value ([3]; Day 18, 5 mg/kg) was 8.97 mm and 8.58 mm and 10.62 mm and 9.13 mm and 10.97 mm and 10.6 mm. For the same molecule, the “Tumor Width” value ([3]; Day 18, 5 mg/kg) was 8.41 mm and 8.21 mm and 9.09 mm and 8.09 mm and 8.03 mm and 8.83 mm, the “Tumor Length” value ([3]; Day 21, 5 mg/kg) was 10.32 mm and 9.85 mm and 10.71 mm and 10.99 mm and 9.04 mm and 9.86 mm and the “Tumor Width” value ([3]; Day 21, 5 mg/kg) was 9.94 mm and 9.85 mm and 8.59 mm and 8.23 mm and 8.97 mm and 9.35 mm. The “Tumor Length” value ([3]; Day 25, 5 mg/kg) was 10.94 mm and 11.6 mm and 9.44 mm and 10.91 mm and 11.63 mm and 11.67 mm, the “Tumor Width” value ([3]; Day 25, 5 mg/kg) was 10.71 mm and 8.34 mm and 9.23 mm and 9.83 mm and 10.03 mm and 9.39 mm and the “Tumor Length” value ([3]; Day 28, 5 mg/kg) was 11.18 mm and 12.43 mm and 12.8 mm and 10.15 mm and 10.49 mm. The “Tumor Width” value ([3]; Day 28, 5 mg/kg) was 9.72 mm and 10.02 mm and 9.93 mm and 10.84 mm and 9.98 mm and 9.95 mm, the “Tumor weight after 28 days” value ([3]; IgG1 (5 mg/kg), Ex. 1, per mouse 1-6, 5 mg/kg) was 0.645 grams and 0.585 grams and 0.501 grams and 0.618 grams and 0.641 grams and 0.555 grams and the tumor suppression rate ([3]; single anti-CD14-IgG1 5 mg/kg (Ex. 1), after 28 days, compared to the control group) was “about 50%”.
